Values quoted from earlier work, collected in patent publication US20070299244A1, “Liposome allowing liposome-entrapped substance to escape from endosome” (Japan Science and Technology Agency, priority 2005, published 2007).
Where two headings read alike, the source gives them in different places.

For “GALA: synthetic peptide comprising the amino acid sequence represented by SEQ ID NO:1 (AALAELAEALAEALHEALAEALAEALAAEW; Designed peptide called “GALA”)”, which “Proportion of α helix structures” value (pH 5.0) is on record?
Its value is “about 70%”.

And the “Proportion of α helix structures” value (pH 7.4)?
The value was “about 20%”.
